Test results reported in PMC3075957 (Nature structural & molecular biology, 2011).

What was measured:
K2Q23K2 [1] = assay: sedimentation assay with HPLC of the supernatant
K2Q23K2 [2] = assay: seeded elongation kinetics
K2Q23K2 [3] = molecular target: K2Q23K2
K2Q23K2 [4] = assay: sedimentation assay with HPLC
[5] = molecular target: the molecule itself; assay: sedimentation assay with HPLC of the supernatant
[6] = Dynamic light scattering of aggregation reactions; assay type: physicochemical; details: 166 μM, PBS 37 °C, different incubation times
[7] = Aggregation time course by HPLC sedimentation assay; assay type: physicochemical; details: comparable concentrations, PBS 37 °C
[8] = Electron microscopy of end-stage aggregates; assay type: physicochemical; details: PBS 37 °C, uniform smooth-sided fibrils

K2Q23K2 (peptide)
n* (critical nucleus size of aggregation) (K2Q23K2 [1]): 3.9 | nucleation equilibrium constant Kn* (monomers to tetrameric nucleus) (K2Q23K2 [1]): 0.076 l^3/mol^3 | percent aggregation (215 μM, 27 hrs) (K2Q23K2 [1]): 5% | kon (K2Q23K2 [2]): 12400 M⁻¹ s⁻¹ | loss of monomer within two hours (215 μM) (K2Q23K2 [3]): < 1% | critical concentration (Cr) of monomer in equilibrium with fibrils (K2Q23K2 [4]): 3 µM

B1: SFQ37P10K2 (peptide)
peptide: SFQQQQQQQQQQQQQQQQQQQQQQQQQQQQQQQQQQQQQPPPPPPPPPPKK
n* (critical nucleus size of aggregation) [5]: 1

B2: K2Q25K2 (peptide)
peptide: KKQQQQQQQQQQQQQQQQQQQQQQQQQKK
n* (critical nucleus size of aggregation) [5]: 2

B3: K2Q37K2 (peptide)
peptide: KKQQQQQQQQQQQQQQQQQQQQQQQQQQQQQQQQQQQQQKK
n* (critical nucleus size of aggregation) [5]: 0.7

B4: K2Q24K2 (peptide)
peptide: KKQQQQQQQQQQQQQQQQQQQQQQQQKK
n* (critical nucleus size of aggregation) [5]: 3.3

B5: AT7^NTQ30K2: peptide consisting of the AT7^NT sequence (29 amino acid N-terminus of ataxin-7) followed by a Q30K2 sequence (peptide)
peptide: MSERAADDVRGEPRRAAAAAGGAAAAAARQQQQQQQQQQQQQQQQQQQQQQQQQQQQQQKK
Aggregate formation by DLS versus sedimentation assay [6]: no aggregate formation that was not detected by the sedimentation assay | Aggregation rate compared with K2Q30K2 [7]: aggregates somewhat slower than K2Q30K2 | Fibril diameter by electron microscopy [8]: ~10 nm
